Data from patent publication US11732048B2, “Anti-axl antagonistic antibodies” (BERGEN TEKNOLOGIOVERFØRING AS, priority 2016, dated 2023).
“Also recorded” adds a separate entry of the source.

T1: Mer (rhMer-Fc chimera) (Homo sapiens, UniProt Q12866)
T1 construct: Soluble recombinant antigens corresponding to the extracellular domains of members of the human TAM receptor family; Fc; purchased R&D Systems 891-MR
T1 sequence (Q12866 21-505 limits assumed): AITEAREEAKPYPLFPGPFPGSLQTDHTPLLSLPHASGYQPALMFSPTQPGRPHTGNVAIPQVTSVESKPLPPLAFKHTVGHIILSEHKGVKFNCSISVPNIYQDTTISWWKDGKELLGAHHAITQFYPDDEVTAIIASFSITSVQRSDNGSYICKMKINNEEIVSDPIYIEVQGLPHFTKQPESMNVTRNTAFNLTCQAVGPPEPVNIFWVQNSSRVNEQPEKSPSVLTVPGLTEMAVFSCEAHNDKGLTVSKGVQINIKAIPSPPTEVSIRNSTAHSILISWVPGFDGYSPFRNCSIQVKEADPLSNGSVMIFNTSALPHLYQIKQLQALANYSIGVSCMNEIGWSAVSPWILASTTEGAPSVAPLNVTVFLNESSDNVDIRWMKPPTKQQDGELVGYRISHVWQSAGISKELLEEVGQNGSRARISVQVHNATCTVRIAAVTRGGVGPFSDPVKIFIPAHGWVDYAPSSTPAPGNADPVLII

B1: murine 10G5: mouse monoclonal anti-human Axl antibody from hybridoma WR-10G5-E5; VH SEQ ID NO: 28, VL SEQ ID NO: 29 (antibody, listed as Mus musculus, V domains shown)
VH: QVQLQQSGAELVRPGASVKLSCKASGYSFTDFYINWVRQRPGQGLEWIARIFPGGDNTYYNEKFKGKATLTAEESSSTAYIQLSSLTSEDSAVYFCARRGLYYAMDYWGQGISVTVSS
VL: DVLMTQTPLSLPVSLGDQASISCRSSQSLVHSNGIPYLHWYLQKPGQSPKLLIYRVSNRFSGVPDRFSGSGSGTDFTLKISRVEAEDLGVYFCSQGTHVPPTFGGGTKLEIK
modifications: (1)..(118) Mus musculus 10G5 VH domain; (1)..(112) Mus musculus 10G5 VL domain
B2: c10G5: chimeric (mouse variable/human constant) IgG1 antibody with the 10G5 VH and VL (antibody, V domains shown)
VH: B1 VH
VL: B1 VL

Columns and labels:
[1] = molecular target: T1, Mer (rhMer-Fc chimera); assay: Biacore binding analysis on immobilised human Mer; details: 10 μg/mL in HBS-EP, 25° C.
Procedure: All binding experiments were performed using Biacore 3000 instrument (GE Healthcare) at 25° C. Soluble recombinant antigens corresponding to the extracellular domains of members of the human TAM receptor family, Axl (rhAxl-Fc chimera; R&D Systems, Cat. no. 154-AL), Mer (rhMer-Fc chimera; R&D Systems, Cat. no. 891-MR) and Tyro3 (rhTyro3/Dtk-Fc chimera; R&D Systems, Cat. no. 859-DK) were immobilized on the surface of CM5 sensor chip using amine coupling at the surface density of 393.0, 303.6 and 364.0 resonance units (RU), respectively. The Biacore run was performed in an automatic mode using Binding analysis wizard. Samples containing MAb 10G5 at concentration 10 μg/mL in HBS-EP buffer (GE Healthcare) were injected over the surfaces with immobilized antigens at flow rate of 30 μL/min for 3 min (association) followed by 5 min dissociation.

[2] = test system: Axl signalling (phosphorylation of Akt on Ser473) in HeLa cells; assay: Gas6-induced Axl downstream signalling, phospho-Akt (Ser473) Western blot; format: cell-based, human; details: pre-incubation 1 μg/mL 1 hr, then mouse Gas6 10 μg/mL 20 min
Procedure: The experiments were performed using human cervical cancer derived cell line HeLa (ATCC® CCL-2™). The cells were grown in T175 flasks to 80% confluency in MEM culture medium (Sigma) supplemented with 10% FBS, penicillin-streptomycin and L-glutamine. The cells were washed with PBS and detached by treatment with 0.25% Trypsin/EDTA (Sigma) followed by centrifugation and resuspension in fresh medium (MEM/0.5% FBS). The cells were seeded in Petri dishes (3×10^6 cells per dish) in MEM medium supplemented with 10% FBS. After three hrs incubation at 37° C., the cells were washed with PBS and kept in starvation medium (MEM/0.5% FBS) overnight. The cells were pre-incubated with anti-Axl antibody 10G5 at concentration 1 μg/mL for 1 hr followed by stimulation with Axl ligand, recombinant mouse Gas6 (R&D Systems), at concentration 10 μg/mL for 20 min. […] Detection with anti-GAPDH antibody (Millipore) was used as loading control.

[3] = molecular target: T2, rhAxl-Fc (binding of Gas6 / MAB154) (Homo sapiens, UniProt P30530); assay: Biacore competitive binding study, MAb 10G5 as first sample (Example 6); details: rhAxl-Fc saturated with 10G5 (160 nM), second sample 25 μg/mL
T2 construct: Fc
Procedure: A competitive binding study was performed using Biacore 3000 instrument (GE Healthcare) and Binding Analysis wizard with several cycles of two samples injection. As a first sample, a saturating concentration of MAb 10G5 (160 nM or 24 μg/mL) was injected over the surface of a CM5 sensor chip coated with rhAxl-Fc (using amine coupling) for 3 min at flow rate of 30 μL/min followed by 2.5 min stabilization (HBS-EP buffer alone) before the injection of the second sample. The following second samples were used: recombinant human (rh) Gas6 (R&D Systems, Cat. no. 885-GS), recombinant mouse (rm) Gas6 (R&D Systems, Cat. no. 986-GS/CF) and a panel of anti-Axl antibodies, such as MAB154 (R&D Systems, Cat. no. MAB154), and 10G5; all at concentration 25 μg/mL. The second sample was injected for 3 min, followed by 2.5 min stabilization (buffer alone) and regeneration of the surface by 30 sec injection of a regeneration solution (10 mM HCl, 1 M NaCl) at flow rate 50 μL/min.

[4] = molecular target: T3, Hs-Axl-Fc (immobilized Axl-Fc) (Homo sapiens, UniProt P30530); assay: Biacore binding competition assays, two injections (Example 22)
T3 construct: Fc
From the text: Sensor chip with immobilised Axl: Hs-Axl-Fc (638.2 RU), Mm-Axl-Fc (334.5 RU), Rhe-Axl-Fc (350.2 RU)
In this experiment, a first antibody was allowed to bind to saturation. A second antibody was then applied and its ability to bind was monitored.
If the second antibody recognizes the same (or overlapping) epitope as the first antibody then binding will be blocked. If the second antibody recognizes a different epitope then binding will be detected at the same level as if no first antibody was present.
The ability of Gas6 to block antibody binding was also tested, using Gas6 at 10 μg/mL in HBS-EP.
All tests were performed in parallel on Hs-Axl-Fc, Mm-Axl-Fc and Rhe-Axl-Fc surfaces.
See FIG. 1 for a list of the pairs that were tested (in this list Contr-1 is incorrectly labeled YW367 instead of YW327.6S2var). All antibodies were at 25 μg/mL in HBS-EP.
• 2. Perform Biacore experiments at 25° C. • 3. In the instrument control software choose Direct Binding, and select settings for two injections as shown below. • 4. […] Store the template & the result file, start the analysis.

[5] = test system: Mv4-11 tumours; assay: Mv4-11 human AML xenograft in nude mice; format: in vivo, mouse; details: 30 mg/kg i.p. twice weekly, after three weeks of treatment, versus vehicle
Procedure: To evaluate the anti-tumour activity of anti-Axl chimeric antibodies in a model of haematological cancer, we used a mouse xenograft model of human acute myeloid leukaemia (AML). The human AML Mv4-11 cells (ATCC #CRL-9591) cells were propagated in suspension in IMDM medium supplemented with 10% FBS, 2 mM L-Glutamine, 100 U/ml penicillin and 100 μg/ml streptomycin. Nude mice were implanted s.c. into the flank with 5×10^6 Mv4-11 cells resuspended in the mixture of serum-free IMDM medium and Matrigel (1:1). When the tumour size reached 200 mm^3 (Day 0 in FIG. 15), the animals were randomized and treated with either vehicle (sterile PBS) or anti-Axl chimeric antibody 10G5 at 30 mg/kg, by i.p. injections twice weekly for 4 weeks.

| Molecule | Binding to recombinant human Mer [1] | Gas6-induced phosphorylation of Akt on Ser473 [2] | Competition with MAB154 for Axl binding [3] | Inhibition of Gas6 (human and murine) binding to rhAxl [3] | Competition with 1H12 for binding to Axl [4] | Inhibition of Mv4-11 tumour growth [5] |
| --- | --- | --- | --- | --- | --- | --- |
| B1 | no significant binding | significantly reduces; also recorded: significantly be reduced | did no inhibit; also recorded: did not compete | cannot be bound; also recorded: inhibited | No competition |  |
| B2 |  |  |  |  |  | around 75% |
